Target: fusion of human collagen type I, alpha 1 solubility-enhancing sequence (HsCol1a1-27), TEV cleavage site ENLYFQG and human keratin type 31 polypeptide fragment (K31)

B1: AcTEV protease (protein)
chain: GESLFKGPRDYNPISSTICHLTNESDGHTTSLYGIGFGPFIITNKHLFRRNNGTLLVQSLHGVFKVKNTTTLQQHLIDGRDMIIIRMPKDFPPFPQKLKFREPQREERICLVTTNFQTKSMSSMVSDTSCTFPSSDGIFWKHWIQTKDGQCGSPLVSTRDGFIVGIHSASNFTNTNNYFTSVPKNFMELLTNQEAQQWVSGWRLNADSVLWGGHKVFMSKPEEPFQPVKEATQLMNELVYSQ
- cleavage of the fusion protein, SDS-PAGE with Coomassie Blue: confirm that the cleavage was successful

Reference: US20250257107
